In patent publication US20080242590A1, “New Method 706” (ASTRAZENECA AB, priority 2007, published 2008):

Key:
[1] = Observations of animal health (Example 25); assay type: in vivo, C57BL/6 mice; settings: 5 mg/kg single i.v., up to 168 hours
Experimental: 20-21 weeks old female C57BL/6 mice (8 mice/group) received vehicle or hFc-Nep at 5 mg/kg as a single intravenous injection and Aβ40 was analysed at different time points after injection (between 1.5-168 hours, i.e., up to 1 week). The γ-secretase inhibitor M-550426 was given per orally and the animals were treated for 3 hours. A blank group was also included in the study. […] Blood collection, plasma processing and measurement of mouse Aβ40 levels in plasma were basically as described in Example 27.

amyloid β 1-40 peptide = assay: Degradation of amyloid β 1-40 peptide by Fc-Neprilysin and Neprilysin in buffer; assay type: biochemical; settings: 2.4 μg/ml, Aβ 1-40 300 nM, 2.5 hours at 37° C., buffer
Experimental: The assay is measuring the remaining amyloid β 1-40 peptide (Bachem) concentration following its incubation in the presence of Neprilysin (R&D Systems) or Fc-Neprilysin with or without Neprilysin inhibitor. 100 μl of reaction mixture containing amyloid β 1-40 peptide (final concentrations, 300, 30 or 3 nM) and/or Neprilysin (2.4 μg/ml), and/or Fc-Neprilysin construct (2.4 μg/ml), and/or Phosphoramidone (10 μM) was incubated in a round bottom 96-well polypropylene plate at 37° C. for 2.5 hours. Following incubation, 10 μl of reaction mixture was transferred into Thermo-Fast© 96-well PCR plate (Abgene, UK) containing 10 μl of Standard Diluent (Gyros AB). Amyloid β 1-40 concentration was determined using Gyrolab Workstation LIF system. Biotinylated anti-amyloid β antibodies (6E10; final concentration 50 μg/ml; Signet) were used as capturing antibodies and polyclonal anti-human amyloid β antibodies (44-348; Biosource) labeled with Alexa Fluor 647 dye (Molecular probes) were used as detection antibodies. Amyloid β 1-40 peptide concentration measurement performed according to the manufacturers protocol using Gyrolab Bioaffy™ Software Package Version 1.8 (Gyros AB). Amyloid β 1-40 peptide degradation by Neprilysin was calculated as a percentage of Amyloid β 1-40 peptide left after incubation in the presence of Neprilysin compared to the amyloid β 1-40 peptide concentration in the absence of Neprilysin.

Aβ 1-42 [2] = assay: Degradation of Aβ 1-42 in APPswe-tg mouse plasma pool (Example 28); assay type: biochemical; settings: room temperature, 1 hour
Experimental: Mouse plasma collected from 9 animals was stored at −70° C. Plasma was thawed and pooled just before the experiment. Aβ 1-40 and 1-42 in plasma pool was degraded by human Fc-Nep or mouse Fc-Nep with corresponding vehicles (50 mM Tris-HCl, 150 mM NaCl pH 7.5). The following final concentrations of the Fc-Nep constructs were used, 100, 32, 10, 3.2, 1, 0.3, 0.1 and […] and the degradation occurred at room temperature for 1 hour while shaking on an orbital shaker. The enzymatic reaction was stopped by adding Phosphoramidone (10 μM final concentration).
After degradation, a final concentration of 4.7 mM EDTA was added to the tg-mouse plasma tubes and the plasma samples were diluted 3 times in sample diluent, before the concentration of Aβ42 was analyzed using ELISA kit Innotest® β-Amyloid1-42 (Innogenetics, lot#177462, ref#80177) according to the manufacturers instructions. The highest concentration (100 μg/ml) of human Fc-Nep and mouse Fc-Nep degraded human plasma amyloid β 1-40 by 71% and 77%, respectively and Aβ 1-42 by 34% and 53%, respectively, as compared to plasma without Fc-Nep treatment.

Aβ 1-42 [3] = assay: Degradation of Aβ 1-42 in human plasma pool (Example 28); assay type: biochemical; settings: room temperature, 1 hour
Experimental: Blood from twelve individuals (6 females and 6 males) were collected into pre-chilled heparin-plasma tubes at the healthcare centre (AstraZeneca) at three different time points. Plasma was prepared by centrifugation at 2500×g for 20 min at 4° C. Plasma samples were collected and transferred to pre-chilled polypropylene tubes and immediately frozen and stored at −70° C. prior to use. Plasma was thawed and pooled from 12 individuals just before the experiment. Aβ 1-40 and 1-42 in plasma pool was degraded by human Fc-Nep or mouse Fc-Nep with corresponding vehicles (50 mM Tris-HCl, 150 mM NaCl pH 7.5). The following final concentrations of the Fc-Nep constructs were used, 100, 32, 10, 3.2, 1, 0.3, 0.1 and […] and the degradation occurred at room temperature for 1 hour while shaking on an orbital shaker. The enzymatic reaction was stopped by adding Phosphoramidone (10 μM final concentration). Concentration of amyloid β 1-40 in human plasma pool was measured using ELISA kit (Biosource; KHB3481) according to the manufacturers instructions.
A final concentration of 4.7 mM EDTA was added to the tubes before the concentration of Aβ42 was analyzed using ELISA kit Innotest® β-Amyloid1-42 (Innogenetics, lot#177462, ref#80177) according to the manufacturers instructions.

[4] = highest concentration 100 μg/ml

B1: Fc-Neprilysin: extracellular domain of human Neprilysin fused to the human IgG2 Fc domain (including hinge), Fc at N-terminus; SEQ ID NO 11 (protein)
chain: ERKCCVECPPCPAPPVAGPSVFLFPPKPKDTLMISRTPEVTCVVVDVSHEDPEVQFNWYVDGVEVHNAKTKPREEQFNSTFRVVSVLTVVHQDWLNGKEYKCKVSNKGLPAPIEKTISKTKGQPREPQVYTLPPSREEMTKNQVSLTCLVKGFYPSDIAVEWESNGQPENNYKTTPPMLDSDGSFFLYSKLTVDKSRWQQGNVFSCSVMHEALHNHYTQKSLSLSPGKYDDGICKSSDCIKSAARLIQNMDATTEPCTDFFKYACGGWLKRNVIPETSSRYGNFDILRDELEVVLKDVLQEPKTEDIVAVQKAKALYRSCINESAIDSRGGEPLLKLLPDIYGWPVATENWEQKYGASWTAEKAIAQLNSKYGKKVLINLFVGTDDKNSVNHVIHIDQPRLGLPSRDYYECTGIYKEACTAYVDFMISVARLIRQEERLPIDENQLALEMNKVMELEKEIANATAKPEDRNDPMLLYNKMTLAQIQNNFSLEINGKPFSWLNFTNEIMSTVNISITNEEDVVVYAPEYLTKLKPILTKYSARDLQNLMSWRFIMDLVSSLSRTYKESRNAFRKALYGTTSETATWRRCANYVNGNMENAVGRLYVEAAFAGESKHVVEDLIAQIREVFIQTLDDLTWMDAETKKRAEEKALAIKERIGYPDDIVSNDNKLNNEYLELNYKEDEYFENIIQNLKFSQSKQLKKLREKVDKDEWISGAAVVNAFYSSGRNQIVFPAGILQPPFFSAQQSNSLNYGGIGMVIGHEITHGFDDNGRNFNKDGDLVDWWTQQSASNFKEQSQCMVYQYGNFSWDLAGGQHLNGINTLGENIADNGGLGQAYRAYQNYIKKNGEEKLLPGLDLNHKQLFFLNFAQVWCGTYRPEYAVNSIKTDVHSPGNFRIIGTLQNSAEFSEAFHCRKNSYMNPEKKCRVW
[1]
  Observations of the animal health: no overt adverse effects
Amyloid β 1-40 peptide; batch 1
  Amyloid β 1-40 peptide degraded: 50%
Amyloid β 1-40 peptide; batch 2
  Amyloid β 1-40 peptide degraded: 42%
Aβ 1-42 [2]; [4]
  Degradation of Aβ 1-42 compared to plasma without treatment: 34%
Aβ 1-42 [2]
  EC50: 1300 nM
Aβ 1-42 [3]; [4]
  Degradation of Aβ 1-42 compared to plasma without treatment: 28%
Aβ 1-42 [3]
  EC50: 250 nM
